Results as given in patent publication US20190343926A1 (priority 2017, published 2019).

Columns and labels:
[1] = 35 mU/kg IV every six minutes, ten bursts
[2] = cited from earlier work
[3] = 0.25 mU/kg/min continuous IV insulin infusion; cited from earlier work

## insulin
[1]
  burst at which steady state (Cmax and Cmin bands) is reached: fourth burst
[2]; 40 mU/kg IV insulin over 3 minutes, over about 30 minutes
  drop in glucose levels: almost half
[2]; 40 mU/kg IV over 3 minutes
  time for blood insulin to drop from 1000 to 500: ~3 min
[3]
  glucose decrease at steady state: about 25%
